We go through 40 sequences from the nanobody polyreactivity screen of Harvey et al. (2022).

This series is described as follows: yeast display, Sf9 membrane polyspecificity reagent, FACS + sequencing; frameworks hold sequencing errors. A digest of the protocol:
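A synthetic nanobody library was expressed on Saccharomyces cerevisiae BJ5465 by galactose induction for 36–48 hours. The library was stained for 1 hour at 4 °C with 10% biotinylated, detergent-solubilized Sf9 membrane reagent and enriched with streptavidin microbeads before FACS. Low and high (top ~1%) gates were set on anti-HA fluorescence for expression and streptavidin fluorescence for reagent binding, and each polyreactivity label reflects the gate of origin.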
For the sequence “QVQLVESGGGIVQAGGSLRLSCAASGSIFYAYAMGWYRQAPGKERELVAAINRGDSTTYADSVKGRITISRDNAKNTVYLQMNSLKPEDTAVYYCAKSRPSRKYYAGVTGQGDYWGQGTQVTVSS”, the “polyreactivity (PSR sort gate)” value is “low polyreactivity”. The same measure for “QVQLVESGGGIVQAGGSLRLSCAASGSILSYYAMGGYRQAPGNEREFVAAISWGTITNYADSVKGRFTISRDNAKKTVYLQMNSLKPEDTAVYYCNADPYGWYSSDYDYWGQGTQVTVSS”: “low polyreactivity”; for “QVQLVESGGGIVQAGGSLRLSCAASGSILYPYAMGWYRQAPGKERELVAAISRGGSTNYADSVKGRFTISRDNAKNTVYLQMNSLKPEDTAVYYCATAYTRFSQRYEYYVIYWQNDYWGQGTQVTVSS”: “low polyreactivity”; for “QVQLVESGGGIVQAGGSLRLSCAASGSNLQYKAMGWYRQAPGKERELVADITSSGGSTYYADSVKGRFTISRDNAKNTVYLQMNSLKPEDTAVYYFAKDTHWAYYWGQGTQVTVSS”: “low polyreactivity”. As to “QVQLVESGGGIVQAGGSLRLSCAASGSSHGYAMGWYRQAPGKERELVAAISLNTGSTYYADSVNGRFTISRDNAKNTVYLQMNSLKPEDTAVYFCNADDYTYATYEYDYWGQGTQVTVSS”, the “polyreactivity (PSR sort gate)” value was “low polyreactivity”. The same measure for “QVQLVESGGGIVQAGGSLRLSCAASGSTFETNAMGRDRQAPGKERELVAAIRWSTGNTYYADSVNGRFTISRDNAKNTVYLQMNSLITEDTAVYYCAAYKAKHYKDGYWGQGTQVSVSS”: “low polyreactivity”. The entry for “QVQLVESGGGIVQAGGSLRLSCAASGSTFRYYARGWSRQAPGKERELVATITCNAAGTYYADSVKGRFTISRDNAKNTVYLQMNSLKPEDTAVYYCAAAPWEWYHYGYYYWGQGTQVTVSS” is “low polyreactivity”; for “QVQLVESGGGIVQAGGSLRLSCAASGSTFSYYDMGWYRQAPGKERELVAAISWNGGTTYYADSVKGRFTISRDNAKNTVYLQMNSLKPEDTAVYYCAATWDFYWAPYDSWGQGTQVTVSS” it is “low polyreactivity”; for “QVQLVESGGGIVQAGGSLRLSCAASGSTFVTHAMGCYRQAPGKEREFVAAISWNSTSTYFADSVKGRFTISRDHAKNTVYLQMNSLKPEDTAVYYCNATTFAFSPSLKGAYGYWGQGTQVTVSS” it is “low polyreactivity”. The entry for “QVQLVESGGGIVQAGGSLRLSCAASGSTFYVYAMGWYRQAPGKERELVAAITVRGGSTYYADSVKGRFTISRDNAKNTVYLQMNSLKPEDTSVDYCNAEGTYGYWRSYNYWGQGTQVTVSS” is “high polyreactivity”; for “QVQLVESGGGIVQAGGSLRLSCAASGSTIGYYAMGWSRQAPGKERELVAAISRRGGSTYYADSVKGRFTISRDNAKNTVYLQMTSLKPEDTAVYYCAADRRIGDGENYYWGQGTQVTVSS” it is “high polyreactivity”; for “QVQLVESGGGIVQAGGSLRLSCAASGYTFGTYAMGWYRQAPGKERELVAAITSTGGRTYYADSVKGRFTISRDNAKNTVYLQMNSLKPEDTAVYYCAAERVYRTIWHYPYYYWGQGTQVTVSS” it is “high polyreactivity”. Consider “QVQLVESGGGIVQAGGSLRLSCAASYYDMGWYRQAPGKERELVASISSGGSTNYADSVKGRFTISRDNAKNTVYLQMNSLKPEDTAVYYCAADVADGVWVKIADEYWGQGTQVTVSS”, for which the “polyreactivity (PSR sort gate)” value is “low polyreactivity”. The same measure for “QVQLVESGGGIVQAGGSLRLSCASSGRTFFWYAMVWYRQAPGKERELVAAITYRGGGTYYADSVKGRFTISRDNAKNTVYLQMNSLKPEDTAVYYCAAEYWVGVYLYDYWGQGTQVTVSS”: “high polyreactivity”; for “QVQLVESGGGIVQAGGSLRLSCDASGNTFKGYAMGWYRQAPGTESELVAAISWSGSSTYYADSLKGRFTISRDNAKNTVYFQLNSLKQEDPAVFSCNRKYLGRYASVYGYGYWGQGTQVTVSS”: “high polyreactivity”; for “QVQLVESGGGIVQAGGSLRLSCSASGSIFPLDGMGSYRQAPGKERELVAAISIGGRTNYADSVKGRFTISRDNAKNTVYLQMTSLKPEDTAVYYCNAVSKFVYRNRILWYDYWGQGTQVTVSS”: “high polyreactivity”. The entry for “QVQLVESGGGIVQAGGSLRLSGAASGFTLTSYAMGWYRQPHGNERELVAGISRGGITYYADSVKGRFTISSDNAKNTVYLQMNSLKPEDTAVYYCATEASFYDPDMYPYGYDYWGQGTQVTVSS” is “high polyreactivity”. Regarding “QVQLVESGGGIVQAGGSLRLSSAASGFIFARYAMGWYRQAPGKERELVAAISSGGRTYYADSVKGRFTISRDNAKNTVYLQMNSLKPEDTAVYYCAADPASSYGKYSYYYWGQGTQVTVSS”, the “polyreactivity (PSR sort gate)” value was “high polyreactivity”. The same measure for “QVQLVESGGGIVQAGGSLRLSSAASGFTFYKYVMGWYRQSPGKERELVAAISYSSGSTYYADSVKGRFTISRDNAKNTVYLKMNSLKPDDTAVYYCAADSTYYGYAYYYWGQGSQVTVSS”: “high polyreactivity”; for “QVQLVESGGGIVQAGGSLRLSSAASGSTFYTKSIGWYIQAPGKERELVAAISGSGGSTYYADSVKGRFTISRDTAKNTVYLQMISLKPEDTAVYSCAARSRYYDTRFDYWGQGTQVTVSS”: “low polyreactivity”; for “QVQLVESGGGIVQAGGSLRLSWAASGSIFDKYAMGWYRQAHGKERELVAAIDSGDTYYADSVKGRFTISRDNAKNPVYFQMNSLKPEDTAVYYWAADDVQYEYDYWGQGTQVSVSS”: “low polyreactivity”. The entry for “QVQLVESGGGIVQAGGSLRLTCAASGFTFFYNAMGWYRQAPGKERELVAAITTNGGSTYYADSVKGRFTISRDNANNTVYLQMNSLKTEDTAVYYFAAEYGITEYDYWGQGTQVTVSS” is “low polyreactivity”.

Turning to “QVQLVESGGGIVQAGGSLRVSCAASGSIFLDNAMGWYRQAPGKERELVADISYSGGSTYYADSVKGRFTISRDNAKNTVYLQMNSLKPEDTAVYYCAAGVQLTVPPLRSSVTEYDYWGQGTQVTVSS”, the “polyreactivity (PSR sort gate)” value is “low polyreactivity”. With “QVQLVESGGGIVQAGGSLRVSCVSSGRTCSRYAMGWSRQAPGKDRELVAAISRRGGSTYYADSVKGRFTISRDNAKNTVYLQMKSLKREDTAVYYCAAGYITWGSGNWVVTPYDYWGQGSQVTVSS”, the “polyreactivity (PSR sort gate)” value is on record as “high polyreactivity”. The entry for “QVQLVESGGGIVQAGGSLSLSCAASGYNFTQNAMGGYRQAPGKERELVASITSGGSTDYADSVKGRFTISRDNAKNTVYLQMNSLKPEDTAVYYCAAEFHFWGYLYDYWGQGTQVTVSS” is “low polyreactivity”. The entry for “QVQLVESGGGIVQAGGSLSLTWAASGSTFAYYAMGRYRQAPGKERELVAAISSSGGRTYYADSVKWRFTISRDNAKNTVYLQMIMLKPEDSAVYYCWGQATQVTVSS” is “low polyreactivity”; for “QVQLVESGGGIVQAGGTLRLSCAASGSTFKNKAMGCNRHAPGKETEFVAGITRRGTSTYYADSVKGRFTISLDNAKNSVYLQMNSLKPEDTSVYYCAARAWYPSRYDYWGQGTLVTVSS” it is “high polyreactivity”; for “QVQLVESGGGIVQARGSLRLTSAASGITFQYYTMGWYRQAPGKERELVAGISDSDGDTYYADSVKGRFTISRDNAKKTVFLQMNSLKPEDTALYYCAADGYAYYRATTRFDYWGQGTQVTLSS” it is “high polyreactivity”. Turning to “QVQLVESGGGIVQAVGSLRLSCAASGFTFFYYAMGWYRQAPGKERELVATISWNGGTTYYADSVKGRFTISRDNAKNTVYLQMNSLKPEDTAVYYCNARYDWTYLYDAGLVPGWDYDYWGQGTQLTVSS”, the “polyreactivity (PSR sort gate)” value is “low polyreactivity”. The same measure for “QVQLVESGGGIVQSGGSLRLSFAASGSIVDWNAMGWYRQAPGKARELVASISSGGSTDYADSVKGRFTISRDNAKNTVYLQMNSLKPEDTAVYYCNADAYAYYPPRWYYGYDYWGQGTQVTVSS”: “low polyreactivity”; for “QVQLVESGGGIYKAGGSLRLSCAASGSIIKINTLGRYRQAPRKERELVAAISTRGGSTYYADSVKGRFTISRDNSKNTVYLQMNSLKPDDTAVYFCAARQFYKYYYWGQGTQVTVSS”: “high polyreactivity”.

Turning to “QVQLVESGGGKVQEGGSLRISCAASGSIFITYAMGWYRQAPGKERELVAAIRDSGDRTYYADSVKGRFTISRDNAKNTVYFQMNSLKPEDTAVYYCNARCQEPLKYDYWGQGTQVIVSS”, the “polyreactivity (PSR sort gate)” value is “low polyreactivity”. For “QVQLVESGGGLAQAGGSLRLSCAASGSTFLYYAMGWYRQAPGKERELVDAIDSGGSTYYADSVKGRFTISRDNAKNTVYLQMNSLKPEDTAVYYCNADFADHWPPNGPGAHDYWGQGTQVTVSS”, the “polyreactivity (PSR sort gate)” value was “low polyreactivity”. Turning to “QVQLVESGGGLDQAGASLRLSCAASGRIYVVNAMGWYREAPGKEMELVATNTRSGGITFYPDSVKGRFTISRDNAKNTVYLQMNSLNPEVTAVYYCNADVLFYTYYTRGRFDFDYWGQGTQVTVSS”, the “polyreactivity (PSR sort gate)” value is “low polyreactivity”. The same measure for “QVQLVESGGGLDQAGASLRLSCAASGSIFVPYTMGWYRQAPGKERELVASISYSGGTTYYADSVKGRFTISRDNAKYTVYLQMNSLKPEDTAVYYCAADWDDSYSYRRYRHYDYWGQGTQVTVSS”: “low polyreactivity”. The entry for “QVQLVESGGGLDQAGGRLRLICAASGRTFTTYAMGWNRQAPGKERELVASISRRGGSTYYADSVKGRFTISRDNAKNTVYLQMTSLKPEDTAVYYCAAKTGTYRGRQVYTYGYWGQGTQVTVSS” is “high polyreactivity”; for “QVQLVESGGGLDQAGGRLRLSCAASGIIFPIYAMRLYRQAPGKERELVAGISTGGGGTYYADSVKGRFTISRDNAKNTVYLQMNSLKPEDSAVYYCSTSGPLYYSRNFDYWGQGTQVTVSS” it is “low polyreactivity”. Take “QVQLVESGGGLDQAGGRLRLSCAASGSTFSYYAKSWYIQAPGKERELVARITWRGGSTNYADSVKGRFTISRDNAKNTVYLQMNSLKPEDTAVYYCATKLTSRVPFDYWGQGTQVTVSS”: the “polyreactivity (PSR sort gate)” value is listed as “high polyreactivity”.

Regarding “QVQLVESGGGLDQAGGSHRLSCAASGSNLSGYAMVWYRQAPGKERELVADISWTGGSTYYADSVKGRLTISRDNAKNTVYLQMISLKPEVTAVYYCATRSGYRRSRVIYYHDDYGYWGQGTQVTVSS”, the “polyreactivity (PSR sort gate)” value was “high polyreactivity”.

For the sequence “QVQLVESGGGLDQAGGSLGLSCAPSGRTFFPYAMGWSRQAPGKEREFVAAITKTDDSTYYADSVKGRFTISRDKAKNTVYLPMNSLKPEDTAVYYCIAGDTQIRFYYWGQGTQVTVSS”, the “polyreactivity (PSR sort gate)” value is “low polyreactivity”.
